# T1: biotinylated mouse Robo3 FN1–3 (Avi-tagged) (mouse, UniProt Q9Z2I4 558-869, biotin on the Avi-tag (BirA))
# T1 chain: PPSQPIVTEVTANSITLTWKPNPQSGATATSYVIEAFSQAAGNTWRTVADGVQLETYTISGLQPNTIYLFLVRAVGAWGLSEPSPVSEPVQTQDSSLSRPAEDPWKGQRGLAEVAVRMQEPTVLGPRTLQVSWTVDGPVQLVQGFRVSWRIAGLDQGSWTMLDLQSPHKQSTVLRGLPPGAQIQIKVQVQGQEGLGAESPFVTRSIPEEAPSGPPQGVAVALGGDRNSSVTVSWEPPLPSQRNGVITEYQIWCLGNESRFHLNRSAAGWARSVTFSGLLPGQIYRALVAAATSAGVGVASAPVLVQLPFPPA
# Target: T1, biotinylated mouse Robo3 FN1–3 …
# Assay: SPR
row,Binder,Kd [µM]
1,mouse NELL2 EGF1–6 R448A/Y450A (domain or fragment) not shown,87
2,"mouse NELL2 EGF1–6, wild type (domain or fragment) not shown",0.71
3,mouse NELL2 EGF1–6 L498A/F500A (domain or fragment) not shown,~400
